Laboratory results published in patent publication US20190241654A1 (published 2019).

Assays:
CD47 on CCRF-CEM cells [1] = biological target: T1, CD47 on CCRF-CEM cells (human, UniProt Q08722 19-323); test: cell-based or functional assay
CD47 on CCRF-CEM cells [2] = biological target: T1, CD47 on CCRF-CEM cells; test: flow cytometry on antibody-opsonized CCRF-CEM cells, anti-human Alexa 647 secondary, median fluorescence, sigmoidal fit; Donor 1
Procedure: (§1) Phagocytosis was assayed by serum starving the macrophages in incomplete AIM V media for two hours. During this incubation period, target cells (CCRF-CEM) from two donors (donor 1 and donor 2) were labeled with CSFE (Invitrogen, #C34554) at […] for 15 minutes at room temperature. Cells were rinsed twice with PBS (Hyclone, #SH30028.02) and resuspended at 8×10⁵/mL in AIM V media. Antibody dilutions were prepared at 0.01 ug/ml to 10 ug/ml in half log dilutions and then incubated with the target cell line for 10 minutes at room temperature (a small portion is retained for flow cytometric analysis/cell binding), after which 100 μL of target cell/antibody suspension was added to the macrophage plates. Samples were treated in triplicate and with appropriate isotype controls.
(§2) Samples were incubated for 30 minutes at room temperature, rinsed 2× and then resuspended in FACS buffer and analyzed on the Attune. The EC50 values refer to the concentration that gives half the maximum binding measured as median fluorescent intensity, and was determined by non-linear fit of a sigmoidal dose response within the GraphPad Prism software.

CD47 on CCRF-CEM cells [3] = biological target: T1, CD47 on CCRF-CEM cells; test: flow cytometry on antibody-opsonized CCRF-CEM cells, anti-human Alexa 647 secondary, median fluorescence, sigmoidal fit; Donor 2
Procedure: as §1, §2

[4] = biological target: T2, recombinant extracellular domain of CD47 (UniProt Q08722 19-139, limits assumed); test: SPR; antibody captured on anti-human Fc, CD47-ECD flowed 0-100 nM; 1:1 Langmuir
T2 construct: extracellular domain; Analyte flowed over the captured antibodies in SPR; also called CD47-ECD
T2 sequence (Q08722 19-139 limits assumed): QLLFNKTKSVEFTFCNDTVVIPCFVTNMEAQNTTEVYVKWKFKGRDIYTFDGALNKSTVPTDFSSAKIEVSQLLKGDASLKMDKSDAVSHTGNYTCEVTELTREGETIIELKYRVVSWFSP
Procedure: The binding kinetics of anti-CD47 antibodies to the recombinant extracellular domain of CD47 were determined by using surface Plasmon resonance (SPR, MASS-1, Sierra Sensors; T200, Biacore, GE Healthcare Life Sciences). Anti-human Fc (P/N: BR-1008-39 (GE Healthcare Life Sciences)) was immobilized on a High Capacity Amine chip (P/N: SPR-AS-HCA, Sierra sensors) or CM5-S Chip (GE Healthcare Life Sciences). CD47 antibodies were captured on Human IgG FC and CD47-ECD was flowed over the surface at various concentrations ranging from zero (for double referencing) to 100 nM. In order to determine KD's, antibodies were ranked using a 1:1 Langmuir model.

CD47 on CCRF-CEM cells [5] = biological target: T1, CD47 on CCRF-CEM cells; test: flow cytometry on antibody-opsonized CCRF-CEM cells, anti-human Alexa 647 secondary, median fluorescence, sigmoidal fit
Procedure: as §1, §2

T1 sequence (Q08722 19-323): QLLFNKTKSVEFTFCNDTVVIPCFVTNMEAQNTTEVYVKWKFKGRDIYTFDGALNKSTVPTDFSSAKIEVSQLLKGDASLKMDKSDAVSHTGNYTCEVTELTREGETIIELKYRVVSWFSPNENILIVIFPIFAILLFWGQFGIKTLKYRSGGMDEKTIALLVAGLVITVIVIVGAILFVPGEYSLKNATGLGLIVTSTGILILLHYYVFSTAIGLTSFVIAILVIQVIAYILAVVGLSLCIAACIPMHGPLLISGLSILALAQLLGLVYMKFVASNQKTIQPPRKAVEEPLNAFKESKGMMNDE

Row | Binder | Phagocytosis EC50 (ug/mL), Donor 1 (CD47 on CCRF-CEM cells [1]) [µg/mL] | Phagocytosis EC50 (ug/mL), Donor 2 (CD47 on CCRF-CEM cells [1]) [µg/mL] | EC50 (CD47 on CCRF-CEM cells [2]) [µg/mL] | EC50 (CD47 on CCRF-CEM cells [3]) [µg/mL] | Kd [4] [nM] | koff [4] [s⁻¹] | kon [4] [M⁻¹ s⁻¹] | EC50 (CD47 on CCRF-CEM cells [5]) [µg/mL]
1 | Ab356/Ab1120 (HC Ab356, LC Ab1120) anti-CD47 antibody (antibody, V domains shown, FR and CDR L2 variant of AbParental) VH: QMQLVQSGAEVKKPGSSVKVSCKASGFNIKDYYLHWVRQAPGKGLEWMGWIDPDQGDTEYAQKFQGRVTITRDRSTSTAYMELRSLRAEDTAVYYCNAAYGSSSYPMDYWGQGTTVTVSS VL: NIQMTQSPSSLSASVGDRVTITCRASQDIHRYLSWFQQKPGKVPKHLIYRYVRFVDGVPSRFSGSGSGTEFTLTISSLQPEDFATYYCLQYDEFPYTFGGGTKVEIK | 0.68 | 1.82 | 0.17 | 0.16 | – | – | – | –
2 | AbParental (parental anti-CD47 antibody) (antibody, human IgG4 S228P, kappa, V domains shown, also called Parental LC-HC; parental antibody) VH: QMQLVQSGAEVKKTGSSVKVSCKASGFNIKDYYLHWVRQAPGQALEWMGWIDPDQGDTEYAQKFQDRVTITRDRSMSTAYMELSSLRSEDTAMYYCNAAYGSSSYPMDYWGQGTTVTVSS VL: NIQMTQSPSAMSASVGDRVTITCKASQDIHRYLSWFQQKPGKVPKHLIYRANRLVSGVPSRFSGSGSGTEFTLTISSLQPEDFATYYCLQYDEFPYTFGGGTKVEIKR | – | – | – | – | 0.236 | 0.00187 | 7.94e+06 | –
3 | Ab480/Ab1127 (HC Ab480, LC Ab1127) anti-CD47 antibody (antibody, V domains shown, FR and CDR L2 variant of AbParental; The label order is HC/LC although the head says 'LC/HC'; r460 is used) VH: QMQLVQSGAEVKKPGSSVKVSCKASGFNIKDYYLHWVRQAPGKGLEWMGWIDPDQGDTEYAQKFQGRVTITRDRSTSTAYMELRSLRAEDTAVYYCNAAYGSSSYPMDYWGQGTLVTVSS VL: NIQMTQSPSSLSASVGDRVTITCRASQDIHRYLSWFQQKPGKVPKHLIYRESRFVDGVPSRFSGSGSGTEFTLTISSLQPEDFATYYCLQYDEFPYTFGGGTKVEIK | 1.88 | 1.95 | 0.08 | 0.2 | – | – | – | –
4 | Ab356/Ab1121 (HC Ab356, LC Ab1121) anti-CD47 antibody (antibody, V domains shown, FR and CDR L2 variant of AbParental; The label order is HC/LC although the head says 'LC/HC'; the row in running number order (r442) is used) VH: QMQLVQSGAEVKKPGSSVKVSCKASGFNIKDYYLHWVRQAPGKGLEWMGWIDPDQGDTEYAQKFQGRVTITRDRSTSTAYMELRSLRAEDTAVYYCNAAYGSSSYPMDYWGQGTTVTVSS VL: NIQMTQSPSSLSASVGDRVTITCRASQDIHRYLSWFQQKPGKVPKHLIYRYIRFVDGVPSRFSGSGSGTEFTLTISSLQPEDFATYYCLQYDEFPYTFGGGTKVEIK | 0.48 | 1.29 | 0.19 | 0.16 | – | – | – | –

The remaining lines, values ahead:

Row | Phagocytosis EC50 (ug/mL), Donor 1 (CD47 on CCRF-CEM cells [1]) [µg/mL] | Phagocytosis EC50 (ug/mL), Donor 2 (CD47 on CCRF-CEM cells [1]) [µg/mL] | EC50 (CD47 on CCRF-CEM cells [2]) [µg/mL] | EC50 (CD47 on CCRF-CEM cells [3]) [µg/mL] | Kd [4] [nM] | koff [4] [s⁻¹] | kon [4] [M⁻¹ s⁻¹] | EC50 (CD47 on CCRF-CEM cells [5]) [µg/mL] | Binder
5 | 0.68 | 0.92 | – | – | – | – | – | 0.035 | Ab495/Ab356 (LC Ab495, HC Ab356) anti-CD47 antibody (antibody, V domains shown, Framework variant of AbParental) VH: QMQLVQSGAEVKKPGSSVKVSCKASGFNIKDYYLHWVRQAPGKGLEWMGWIDPDQGDTEYAQKFQGRVTITRDRSTSTAYMELRSLRAEDTAVYYCNAAYGSSSYPMDYWGQGTTVTVSS VL: NIQMTQSPSSLSASVGDRVTITCKASQDIHRYLSWYQQKPGKAPKHLIYRANRLVSGVPSRFSGSGSGTEFTLTISSLQPEDFATYYCLQYDEFPYTFGGGTKVEIK
6 | 0.43 | 1.42 | 0.17 | 0.17 | – | – | – | – | Ab480/Ab1121 (HC Ab480, LC Ab1121) anti-CD47 antibody (antibody, V domains shown, FR and CDR L2 variant of AbParental; The label order is HC/LC although the head says 'LC/HC'; r442 is used) VH: QMQLVQSGAEVKKPGSSVKVSCKASGFNIKDYYLHWVRQAPGKGLEWMGWIDPDQGDTEYAQKFQGRVTITRDRSTSTAYMELRSLRAEDTAVYYCNAAYGSSSYPMDYWGQGTLVTVSS VL: NIQMTQSPSSLSASVGDRVTITCRASQDIHRYLSWFQQKPGKVPKHLIYRYIRFVDGVPSRFSGSGSGTEFTLTISSLQPEDFATYYCLQYDEFPYTFGGGTKVEIK
7 | 1.07 | 1.83 | 0.17 | 0.22 | – | – | – | – | Ab356/Ab1122 (HC Ab356, LC Ab1122) anti-CD47 antibody (antibody, V domains shown, FR and CDR L2 variant of AbParental; The label order is HC/LC although the head says 'LC/HC'; r445 is used) VH: QMQLVQSGAEVKKPGSSVKVSCKASGFNIKDYYLHWVRQAPGKGLEWMGWIDPDQGDTEYAQKFQGRVTITRDRSTSTAYMELRSLRAEDTAVYYCNAAYGSSSYPMDYWGQGTTVTVSS VL: NIQMTQSPSSLSASVGDRVTITCRASQDIHRYLSWFQQKPGKVPKHLIYRYERFVDGVPSRFSGSGSGTEFTLTISSLQPEDFATYYCLQYDEFPYTFGGGTKVEIK
